This test has as its target casein.

Substance “PD498 alkaline protease (protease purified from Bacillus sp. PD498, NCIMB No. 40484) (enzyme)” yielded a proteolytic activity (Casein Protease Units, CPU) of 120 CPU/l.

Source of the values: patent US5621089.
